The target in assay [1] is T1, Human EphA2-Fc fusion protein (human, UniProt P29317 24-537).
T1 construct: extracellular domain; Expressed in HEK 293 cells; Biotinylated in the capture ELISAs; also called soluble EphA2 Fc fusion protein; not shown: Fc portion of a human IgG1
Nature of the assay: SPR (Biacore 3000), soluble IgG on immobilized EphA2-Fc. In general terms: Surface plasmon resonance follows binding to a sensor surface in real time, without labels.

The target in the next assay is T2, cynomolgus EphA2 (cynomolgus, UniProt Q1KL86 24-976).
T2 construct: whole, on cells; also called cynomolgus EphA2 expressed on transfected CHO cells
Nature of the assay: flow cytometry on cynomolgus EphA2 transfected CHO cells, antibody 10 µg/ml, AlexaFluor 488 anti-mouse or anti-human IgG (H+L). On the procedure:
Subconfluent monolayers of SW480 colon carcinoma or cynomolgus EphA2 transfected CHO cells were quickly trypsinized, washed, counted, plated into 96-well round bottom plates, and stained with 10 μg/ml of a negative control antibody (R347), the anti-human EphA2 murine antibody, EA2 (Coffman 2003), or humanized antibodies, 3F2 and 4H5. Cells were resuspended in AlexaFluor 488 anti-mouse or anti-human IgG H+L (Invitrogen) and then analyzed by flow cytometry using a FACSCalibur (Becton Dickinson).
For orientation: Flow cytometry measures light scatter and fluorescence of single cells or particles in a stream.

For assay [2], the target named is T3, human EphA2 (human, UniProt P29317 24-976).
T3 construct: whole, on cells; also called EphA2 receptor
The assay can be described thus: flow cytometry on A549 cells, antibody 10 µg/ml, PE anti-mouse Fc gamma; control: irrelevant antibody of the same isotype [A]. The method, then: FIGS. 10A-10B: Flow cytometric binding analysis of anti-EphA2 parental antibodies. EphA2 expressing A549 cells (human lung carcinoma cell line) (A), and MDA-MB-231 cells (human breast cancer) (B) were used. Cells (200,000) were incubated with 10 μg/ml of the respective antibody for 30 min on ice. The cells were subsequently washed twice in PBS. The binding of the primary antibody was detected via an phycoerythrin-conjugated murine Fc-gamma specific antibody (Dianova, order no. 115-116-071) diluted 1:100 in 50 μl PBS with 2% FCS. As negative control, an irrelevant antibody with the same isotype was used (thin line). Cells were analyzed by flow cytometry on a FACS-Calibur (Becton Dickinson, Heidelberg). […] The binding capabilities of the three different antibodies are shown in a histogram overlay (4th peak from left=B322 antibody; 3rd peak from left=EA2 antibody; 2nd peak from left=EA5 antibody; far left peak—control).
A flow cytometric analysis was performed to estimate the binding strength of the anti-EphA2 parental monoclonal antibodies […], EA2 and EA5 (FIG. 10). […] The binding of the primary antibody was detected via an phycoerythrin conjugated murine Fc-gamma specific antibody (Dianova, order no. 115-116-071) diluted 1:100 in […] PBS with 2% FCS. […] Cells were analyzed by flow cytometry on a FACS-Calibur (Becton Dickinson, Heidelberg).

Assay [3] addresses T3, human EphA2. The assay can be described thus: immunofluorescence microscopy of fixed monolayers of MCF-10A and MDA-MB-231 cells. The method, then: Monolayers of MCF-10A or MDA-MB-231 cells were cultured atop glass coverslips for at least 24 h at 37° C. before staining. Cell monolayers were fixed in 4% paraformaldehyde (2 min, 25° C.) before incubation with primary antibody (clone G5 (negative control), EA5, EA2, 3F2, or 4H5) for 30 min followed by subsequent staining with AlexaFluor 488-conjugated goat anti-mouse IgG or AlexaFluor 488-conjugated goat anti-human IgG (The Jackson Laboratory). Cells were fixed for analyses by immunofluorescence microscopy. […] The amino acid sequence of the VL and VH domains of the G5 antibody are depicted in FIG. 42.

In assay [4] the target is T1, Human EphA2-Fc fusion protein. Nature of the assay: SPR (BIAcore 3000), KD against that of 4H5 scFv. On the procedure: (§1) 2A4, 2E7 and 12E2 as well as parental EA2 scFv and humanized 4H5 scFv were induced for expression in E. coli in a 1 L culture volume. The supernatants containing soluble, secreted scFv fragments were spun to remove cellular debris then passed over an anti-FLAG column (Sigma) to purify and isolate the variant proteins. The purified affinity optimized variants were analyzed by surface plasmon resonance detection using a BIAcore 3000 instrument (Pharmacia Biosensor, Uppsala, Sweden). […] For affinity measurement results, see the table in section 6.6, infra.

For assay [5] the target is unchanged. The assay can be described thus: SPR (BIAcore 3000), purified monomeric scFv, human EphA2. On the procedure: as §1

The values below come from patent publication US20080044413A1 (published 2008).

T2 sequence (Q1KL86 24-976): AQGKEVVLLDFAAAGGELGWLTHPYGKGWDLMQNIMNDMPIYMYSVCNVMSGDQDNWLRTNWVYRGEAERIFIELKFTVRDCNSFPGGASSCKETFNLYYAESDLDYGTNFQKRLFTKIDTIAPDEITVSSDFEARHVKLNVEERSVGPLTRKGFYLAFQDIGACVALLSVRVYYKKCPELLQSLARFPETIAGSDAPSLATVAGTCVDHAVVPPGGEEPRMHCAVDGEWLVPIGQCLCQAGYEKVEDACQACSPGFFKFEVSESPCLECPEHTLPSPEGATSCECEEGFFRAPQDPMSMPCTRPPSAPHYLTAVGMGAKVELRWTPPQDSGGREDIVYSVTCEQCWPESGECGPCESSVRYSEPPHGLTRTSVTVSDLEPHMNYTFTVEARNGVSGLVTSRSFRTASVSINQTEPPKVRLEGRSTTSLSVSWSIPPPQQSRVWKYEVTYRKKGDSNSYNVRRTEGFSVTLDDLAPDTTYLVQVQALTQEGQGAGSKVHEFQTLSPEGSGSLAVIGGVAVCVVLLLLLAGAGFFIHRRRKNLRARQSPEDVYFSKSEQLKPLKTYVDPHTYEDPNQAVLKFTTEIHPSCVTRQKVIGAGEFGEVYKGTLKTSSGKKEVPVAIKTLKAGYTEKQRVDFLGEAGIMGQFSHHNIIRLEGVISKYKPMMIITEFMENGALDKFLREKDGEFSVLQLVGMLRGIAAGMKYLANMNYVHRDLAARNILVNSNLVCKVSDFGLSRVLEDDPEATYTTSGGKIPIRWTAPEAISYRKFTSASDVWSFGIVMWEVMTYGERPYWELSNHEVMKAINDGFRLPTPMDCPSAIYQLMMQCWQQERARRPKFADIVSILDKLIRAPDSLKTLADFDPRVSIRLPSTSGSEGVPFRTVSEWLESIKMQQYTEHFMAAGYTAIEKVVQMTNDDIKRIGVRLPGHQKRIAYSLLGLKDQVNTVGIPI

B1: Chimaeric B 233 (antibody, V domains shown)
VH: EVKLVESGGGLVQPGGSLSLSCAASGFTFTDYSMNWVRQPPGKALEWLGFIRNKANDYTTEYSASVKGRFTISRDNSQSILYLQMNALRAEDSATYYCVRYPRYHAMDSWGQGTSVTVSS
VL: DIVLTQSPATLSVTPGDSVNLSCRASQSISNNLHWYQQKSHESPRLLIKYVFQSISGIPSRFSGSGSGTDFTLSINSVETEDFGMYFCQQSNSWPLTFGAGTKLELK
notes: Soluble IgG with the B233 variable regions; also called chimaeric mAb B233; chimeric B233
In assay [1], B1 returned an equilibrium dissociation constant (Kd) of 0.3 nM, a koff of 8e-05 s⁻¹ and a kon of 240000 M⁻¹ s⁻¹.

B2: anti-EphA2 antibody EA2 (antibody, V domains shown)
VH: DVKLVESGGGLVKPGGSLKLSCAASGFTFSSYTMSWVRQTPEKRLEWVATISSGGTYTYYPDSVKGRFTISRDNAKNTLYLQMSSLKSEDTAMYYCTREAIFTYWGQGTLVTVSA
VL: DIKMTQSPSSMYASLGERVTITCKASQDINNYLSWFQQKPGKSPKTLIYRANRLVDGVPSRFSGSGSGQDYSLTISSLEYEDMGIYYCLKYDEFPYTFGGGTKLEIK
notes: Murine monoclonal antibody; Hybridoma ATCC PTA-4380; also called mAb EA2
On to B2, for which the binding result with cynomolgus EphA2 and with human EphA2 [2] was “binds” throughout.

B3: anti-EphA2 antibody EA5 (antibody, V domains shown)
VH: EVQLQQSGPELVKTGASVKISCKASGYSFTGYYMHWVKQSHGKSLEWIGYISCYNGVTSYNQKFKGKATFTVDTSSSTAYMQFNSLTSEDSAVYYCARSHAMDYWGQGTSVTVSS
VL: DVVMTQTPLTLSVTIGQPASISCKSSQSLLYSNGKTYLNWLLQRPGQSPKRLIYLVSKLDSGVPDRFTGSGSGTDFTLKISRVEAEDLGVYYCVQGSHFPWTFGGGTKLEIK
notes: Murine monoclonal antibody; Hybridoma ATCC PTA-4381; also called mAb EA5
Turning to B3, the binding result with human EphA2 [2] is “binds”.

B4: Affinity optimized 3F2 (antibody, human IgG1, V domains shown)
VH: EVQLVESGGGVVRPGGSLRLSCAASGFTVSDYSMNWVRQAPGKGLEWIGFIRNKANAYTTEYSASVKGRFTISRDDSKNTLYLQMNSLKTEDTAVYYCTTYPRYHAMDSWGQGTMVTVSS
VL: AIQLTQSPSSLSASVGDRVTITCRASQSISNNLHWYLQKPGQSPQLLIYYGFQSISGVPSRFSGSGSGTDFTLTISSLQPEDFATYYCQQANSWPLTFGGGTKLEIK
notes: human IgG1 with human kappa chain
With B4, in the assay with cynomolgus EphA2, the binding result is “binds”. In assay [1], this molecule yielded an equilibrium dissociation constant (Kd) of 0.671 nM, a koff of 0.000127 s⁻¹ and a kon of 189000 M⁻¹ s⁻¹.

B5: G5 (antibody, V domains shown)
VH: QMQLVQSGPEVKKPGTSVKVSCKASGFTFTDYSMNWVRQARGQRLEWIGFIRNKANDYTTEYSASVKGRVTITRDMSTSTAYMELSSLRSEDTAVYYCARYPRYHAMDSWGQGTSVTVSS
VL: DIQMTQSPSSLSASVGDRVTITCRASQSISNNLHWYQQKPGKAPKLLIKYVFQSISGVPSRFSGSGSGTDFTFTISSLQPEDFATYYCQQSNSWPLTFGGGTKVEIK
notes: also called clone G5; anti-EphA2 antibody G5
In the case of B5, the binding result in the assay with human EphA2 [3] is “binds”.

B6: VH VL 2A4 scFv (scFv)
scFv: QVQLLESGGGLVQPGGSLRLSCAASGFTFSSYTMSWVRQAPGQALEWMGTISSRGTYTYYPDSVKGRFTISRDNAKNSLYLQMNSLRAEDTAVYYCAREAIFTHWGRGTLVTVSSGGGGSGGGGSGGGGSDIQLTQSPSSLSASVGDRVTITCKASQDINNYHSWYQQKPGQAPRLLIYRANRLVDGVPDRFSGSGYGTDFTLTINNIESEDAAYYFCLKYNVFPYTFGQGTKVEIK
notes: FLAG and His tags as for 4H5 scFv
Regarding B6, the “Fold Difference (vs 4H5)” value in assay [4] was 32 fold. Moreover, in assay [5], the Kd came out at 5.7 nM, the dissociation rate constant (koff) amounted to 0.0037 s⁻¹ and the on-rate constant (kon) is 650000 M⁻¹ s⁻¹.

B7: VH VL 2E7 scFv (scFv)
scFv: QVQLLESGGGLVQPGGSLRLSCAASGFTFSSYTMSWVRQAPGQALEWMGTISSRGTYTYYPDSVKGRFTISRDNAKNSLYLQMNSLRAEDTAVYYCAREAIFTHWGRGTLVTVSSGGGGSGGGGSGGGGSDIQLTQSPSSLSASVGDRVTITCKASQDINNYGSWYQQKPGQAPRLLIYRANRLVDGVPDRFSGSGYGTDFTLTINNIESEDAAYYFCLKYNRFPYTFGQGTKVEIK
notes: as for B6
Regarding B7, in assay [4], the “Fold Difference (vs 4H5)” value amounted to 25 fold. In assay [5], this molecule displayed a Kd of 7.3 nM, a koff of 0.0041 s⁻¹ and a kon of 560000 M⁻¹ s⁻¹.

B8: 4H5 VH-VL scFv humanized clone (scFv)
scFv: QVQLLESGGGLVQPGGSLRLSCAASGFTFSSYTMSWVRQAPGQALEWMGTISSGGTYTYYPDSVKGRFTISRDNAKNSLYLQMNSLRAEDTAVYYCAREAIFTYWGRGTLVTVSSGGGGSGGGGSGGGGSDIQLTQSPSSLSASVGDRVTITCKASQDINNYLSWYQQKPGQAPRLLIYRANRLVDGVPDRFSGSGYGTDFTLTINNIESEDAAYYFCLKYDVFPYTFGQGTKVEIK
notes: Expressed with a C-terminal FLAG tag and His tag; also called 4H5 scFv; scFv 4H5
On to B8, for which the “Fold Difference (vs 4H5)” value in assay [4] was found to be 1 fold. In assay [5], this molecule registered a Kd of 180 nM, a koff of 0.018 s⁻¹ and an on-rate constant (kon) of 100000 M⁻¹ s⁻¹.

B9: VH VL 12E2 scFv (scFv)
scFv: QVQLLESGGGLVQPGGSLRLSCAASGFTFSSYTMSWVRQAPGQALEWMGTISSRGTYTYYPDSVKGRFTISRDNAKNSLYLQMNSLRAEDTAVYYCAREAIFTYWGRGTLVTVSSGGGGSGGGGSGGGGSDIQLTQSPSSLSASVGDRVTITCKASQDINNYLSWYQQKPGQAPRLLIYRANRLFDGVPDRFSGSGYGTDFTLTINNIESEDAAYYFCLKYDRFPYTFGQGTKVEIK
notes: as for B6
Take B9: in assay [4], the “Fold Difference (vs 4H5)” value was 23 fold. Besides, in assay [5], the Kd came to 7.8 nM, the koff turned out to be 0.0041 s⁻¹ and the kon was 520000 M⁻¹ s⁻¹.

B10: parental anti-EphA2 scFv EA2 (scFv)
scFv: DVKLVESGGGLVKPGGSLKLSCAASGFTFSSYTMSWVRQTPEKRLEWVATISSGGTYTYYPDSVKGRFTISRDNAKNTLYLQMSSLKSEDTAMYYCTREAIFTYWGQGTLVTVSAGGGGSGGGGSGGGGSDIKMTQSPSSMYASLGERVTITCKASQDINNYLSWFQQKPGKSPKTLIYRANRLVDGVPSRFSGSGSGQDYSLTISSLEYEDMGIYYCLKYDEFPYTFGGGTKLEIK
notes: The murine EA2 variable regions were cloned in the same manner as the 4H5 scFv (VH, linker, VL, FLAG, His); also called EA2 scFv; not shown: C-terminal FLAG tag and His tag
For B10, in assay [4], the “Fold Difference (vs 4H5)” value is -4.8 fold. In assay [5], this molecule registered a Kd of 870 nM, an off-rate constant (koff) of 0.03 s⁻¹ and an on-rate constant (kon) of 34000 M⁻¹ s⁻¹.

As usually defined, the Kd is the equilibrium constant for the complex coming apart. What is called koff is the rate constant with which the complex falls apart. Read a low koff as slow dissociation. By kon is commonly meant the second-order rate constant of association. Read a high kon as fast association.
